In the Immune Epitope Database (IEDB):

Legend:
HLA-B*15:01 = assay: IEDB peptide-MHC binding, purified MHC/direct/fluorescence; filed as Kd, often an IC50 or EC50 that approximates it; ≥ and ≤ were set here for values at or beyond the usual limits of such assays
HLA-B*46:01 = assay: as above
HLA-A*69:01 = assay: as above; settings: source organism: Bacillus anthracis
HLA-B*40:01 = assay: as above; settings: source organism: Bacillus anthracis
HLA-B*57:01 [1] = assay: as above
HLA-A*11:01 [2] = assay: as above; settings: source organism: Bacillus anthracis
HLA-B*58:01 = assay: as above; settings: source organism: Bacillus anthracis
HLA-B*39:01 = assay: as above; settings: source organism: Picosynechococcus sp. PCC 7002
HLA-A*02:01 [3] = assay: as above
HLA-A*01:01 [4] = assay: as above; settings: source organism: Bacillus anthracis
HLA-B*08:01 = assay: as above; settings: source organism: Picosynechococcus sp. PCC 7002
HLA-B*48:01 = assay: as above; settings: source organism: Bacillus anthracis
HLA-A*26:02 [5] = assay: as above; settings: source organism: Picosynechococcus sp. PCC 7002
HLA-B*07:02 = assay: as above; settings: source organism: Bacillus anthracis
HLA-A*31:01 = assay: as above; settings: source organism: Bacillus anthracis
HLA-A*26:03 = assay: as above
HLA-A*03:01 = assay: as above
HLA-B*27:05 = assay: as above; settings: source organism: Bacillus anthracis
HLA-B*15:17 = assay: IEDB peptide-MHC binding, purified MHC/competitive/fluorescence; filed as Kd, often an IC50 or EC50 that approximates it; ≥ and ≤ were set here for values at or beyond the usual limits of such assays
HLA-A*02:03 [6] = assay: as above
HLA-B*18:01 = assay: as above; settings: source organism: Human immunodeficiency virus 1
HLA-A*02:06 = assay: as above; settings: source organism: Human immunodeficiency virus 1
HLA-B*57:01 [7] = assay: as above; settings: source organism: Human immunodeficiency virus 1
HLA-A*30:01 = assay: as above; settings: source organism: Human immunodeficiency virus 1
HLA-A*11:01 [8] = assay: as above; settings: source organism: Human immunodeficiency virus 1
HLA-A*01:01 [9] = assay: as above; settings: source organism: Human immunodeficiency virus 1
HLA-A*26:02 [10] = assay: as above; settings: source organism: Human immunodeficiency virus 1
HLA-B*51:01 = assay: IEDB peptide-MHC binding, purified MHC/direct/fluorescence; filed as Kd, often an IC50 or EC50 that approximates it; ≥ and ≤ were set here for values at or beyond the usual limits of such assays; settings: source organism: Cryptosporidium parvum Iowa II
HLA-A*02:12 = assay: as above; settings: source organism: Cryptosporidium parvum Iowa II
HLA-A*29:02 = assay: as above; settings: source organism: Cryptosporidium parvum Iowa II
HLA-B*27:03 = assay: as above; settings: source organism: Cryptosporidium parvum Iowa II
HLA-A*26:01 = assay: as above; settings: source organism: Cryptosporidium parvum Iowa II
HLA-C*05:01 = assay: as above; settings: source organism: Cryptosporidium parvum Iowa II
HLA-A*24:03 = assay: as above; settings: source organism: Cryptosporidium parvum Iowa II
HLA-A*23:01 = assay: as above; settings: source organism: Cryptosporidium parvum Iowa II
HLA-A*02:16 = assay: as above; settings: source organism: Cryptosporidium parvum Iowa II
HLA-A*02:11 = assay: as above; settings: source organism: Cryptosporidium parvum Iowa II
HLA-A*02:03 [11] = assay: as above; settings: source organism: Cryptosporidium parvum Iowa II
HLA-A*02:19 = assay: as above; settings: source organism: Cryptosporidium parvum Iowa II
HLA-B*83:01 = assay: IEDB peptide-MHC binding, purified MHC/competitive/fluorescence; filed as Kd, often an IC50 or EC50 that approximates it; ≥ and ≤ were set here for values at or beyond the usual limits of such assays
HLA-A*68:23 = assay: as above; settings: source organism: Cryptosporidium parvum Iowa II
HLA-B*15:42 = assay: as above
HLA-C*14:02 = assay: as above; settings: source organism: Cryptosporidium parvum Iowa II
HLA-B*45:06 = assay: as above
HLA-A*32:07 = assay: as above; settings: source organism: Mycobacterium tuberculosis C
HLA-A*02:01 [12] = assay: IEDB peptide-MHC binding, purified MHC/competitive/fluorescence; ≥ and ≤ were set here for values at or beyond the usual limits of such assays; settings: source organism: Monodelphis domestica
HLA-A*68:02 = assay: as above; settings: source organism: Monodelphis domestica
HLA-C*08:02 = assay: IEDB peptide-MHC binding, purified MHC/direct/fluorescence; filed as Kd, often an IC50 or EC50 that approximates it; ≥ and ≤ were set here for values at or beyond the usual limits of such assays; settings: source organism: Hylobates lar
[13] = source organism: Bacillus anthracis
[14] = source organism: Bacillus anthracis str. A0488
[15] = source organism: Human immunodeficiency virus 1
[16] = source organism: Cryptosporidium parvum Iowa II
[17] = source organism: Mycobacterium tuberculosis C

DTVLFNAGL gave a Kd (HLA-B*15:01; [13]) of at least 20 µM, a Kd (HLA-B*46:01; [13]) of at least 20 µM and a Kd (HLA-A*69:01) of at most 0.001 µM. For the same sequence, the Kd (HLA-B*40:01) was at least 20 µM, the Kd (HLA-B*57:01 [1]; [13]) was at least 20 µM and the Kd (HLA-A*11:01 [2]) was at least 20 µM. The Kd (HLA-B*58:01) was at least 20 µM, the Kd (HLA-B*39:01) was at least 20 µM and the Kd (HLA-A*02:01 [3]; [13]) was at least 20 µM. The Kd (HLA-A*01:01 [4]) was at least 20 µM, the Kd (HLA-B*08:01) was at least 20 µM and the Kd (HLA-B*48:01) was at least 20 µM. It also gave a Kd (HLA-A*26:02 [5]) of 0.041 µM, a Kd (HLA-B*07:02) of at least 20 µM and a Kd (HLA-A*31:01) of at least 20 µM. The Kd (HLA-A*26:03; source organism: Picosynechococcus sp. PCC 7002) was 0.054 µM, the Kd (HLA-A*03:01; [13]) was at least 20 µM and the Kd (HLA-B*27:05) was at least 20 µM. The Kd (HLA-B*15:17; [14]) was at least 20 µM and the Kd (HLA-A*02:03 [6]; [14]) was at least 20 µM.

GTIIAHGGL was tested, and the Kd (HLA-A*26:03; source organism: Rickettsia prowazekii) was at least 20 µM.

KSLFNTIATLY was tested, and the Kd (HLA-B*18:01) was 0.284 µM, the Kd (HLA-A*02:06) was 0.254 µM and the Kd (HLA-B*15:17; [15]) was 0.0022 µM. It also gave a Kd (HLA-B*57:01 [7]) of 0.114 µM, a Kd (HLA-A*30:01) of at least 20 µM and a Kd (HLA-A*11:01 [8]) of 0.11 µM. For the same sequence, the Kd (HLA-A*01:01 [9]) was 1.02 µM, the Kd (HLA-A*26:02 [10]) was at least 20 µM and the Kd (HLA-A*02:03 [6]; [15]) was 1.9 µM.

Work on MPMSMPIPM yielded a Kd (HLA-B*15:01; [16]) of at least 20 µM, a Kd (HLA-B*51:01) of 5.84 µM and a Kd (HLA-A*02:12) of at least 20 µM. For the same sequence, the Kd (HLA-B*46:01; [16]) was at least 20 µM, the Kd (HLA-A*29:02) was at least 20 µM and the Kd (HLA-B*27:03) was at least 20 µM. The Kd (HLA-B*57:01 [1]; [16]) was at least 20 µM, the Kd (HLA-A*26:01) was at least 20 µM and the Kd (HLA-A*02:01 [3]; [16]) was at least 20 µM. It also gave a Kd (HLA-C*05:01) of at least 20 µM, a Kd (HLA-A*24:03) of at least 20 µM and a Kd (HLA-A*23:01) of at least 20 µM. It also gave a Kd (HLA-A*02:16) of at least 20 µM, a Kd (HLA-A*02:11) of at least 20 µM and a Kd (HLA-A*02:03 [11]) of at least 20 µM. It also gave a Kd (HLA-A*02:19) of at least 20 µM, a Kd (HLA-A*03:01; [16]) of at least 20 µM and a Kd (HLA-B*83:01; [16]) of 0.0395 µM. The Kd (HLA-A*68:23) was 0.0027 µM, the Kd (HLA-B*15:42; [16]) was at least 5 µM and the Kd (HLA-C*14:02) was 0.125 µM. The Kd (HLA-B*45:06; [16]) was at least 5 µM.

With RIRAANLPI the Kd (HLA-B*83:01; [17]) was at least 5 µM, the Kd (HLA-B*15:42; [17]) was at least 5 µM and the Kd (HLA-B*45:06; [17]) was at least 5 µM. It also gave a Kd (HLA-A*32:07) of 0.0333 µM.

YSLEYFQFV was tested, and the IC50 (HLA-A*02:01 [12]) was 0.0592 µM, the IC50 (HLA-A*68:02) was 0.106 µM and the Kd (HLA-C*08:02) was at least 20 µM.
